Experimental data: US20130005646A1 (Novo Nordisk, published 2013)
Starred links: 1 amine or outer side, 2 acyl side, 3 side chain; linkers in the order of their positions; H or OH if unused. Positions of bridges follow the written chain, without caps; N, C: chain ends. Non-standard residues stand in square brackets, D forms with d. *: point of attachment. C20 diacid = O=C(O)CCCCCCCCCCCCCCCCCCC(=O)*; 19‑carboxyheptadecanoyl = not defined here; γGlu = O=C(O)[C@H](CCC(=O)[*:2])N[*:1]; AEEA = NCCOCCOCC(=O)O

T1: rat calcitonin (a) receptor (rat, UniProt P32214 25-516)
T1 sequence (looked up): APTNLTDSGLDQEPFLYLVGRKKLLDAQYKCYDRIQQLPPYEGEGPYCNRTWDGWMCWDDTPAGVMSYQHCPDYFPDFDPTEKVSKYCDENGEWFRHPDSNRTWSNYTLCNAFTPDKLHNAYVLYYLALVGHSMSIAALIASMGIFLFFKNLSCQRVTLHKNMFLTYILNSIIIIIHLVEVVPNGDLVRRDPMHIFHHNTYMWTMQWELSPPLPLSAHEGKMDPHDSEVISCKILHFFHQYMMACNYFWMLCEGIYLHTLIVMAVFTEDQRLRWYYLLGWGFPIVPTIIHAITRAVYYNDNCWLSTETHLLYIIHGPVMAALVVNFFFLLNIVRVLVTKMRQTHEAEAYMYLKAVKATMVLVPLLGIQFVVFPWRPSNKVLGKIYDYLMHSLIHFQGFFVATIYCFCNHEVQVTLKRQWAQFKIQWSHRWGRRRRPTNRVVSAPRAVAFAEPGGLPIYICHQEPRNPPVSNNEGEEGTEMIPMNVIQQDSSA

T2: human amylin 3(a) receptor (human calcitonin receptor + RAMP-3) (human, UniProt P30988 25-474; O60896 24-148)
T2 sequence (looked up) 1: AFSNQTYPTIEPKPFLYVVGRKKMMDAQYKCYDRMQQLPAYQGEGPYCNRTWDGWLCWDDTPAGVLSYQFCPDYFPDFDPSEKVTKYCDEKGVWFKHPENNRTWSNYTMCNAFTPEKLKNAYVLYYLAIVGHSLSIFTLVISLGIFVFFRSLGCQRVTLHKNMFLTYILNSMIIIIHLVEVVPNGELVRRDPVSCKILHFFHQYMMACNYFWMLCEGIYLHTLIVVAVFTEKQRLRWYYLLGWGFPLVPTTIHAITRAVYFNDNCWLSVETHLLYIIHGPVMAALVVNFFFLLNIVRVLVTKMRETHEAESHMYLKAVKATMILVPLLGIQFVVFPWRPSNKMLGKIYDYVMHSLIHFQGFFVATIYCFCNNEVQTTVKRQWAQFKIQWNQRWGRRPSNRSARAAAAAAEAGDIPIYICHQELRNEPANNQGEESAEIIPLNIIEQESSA
T2 sequence (looked up) 2: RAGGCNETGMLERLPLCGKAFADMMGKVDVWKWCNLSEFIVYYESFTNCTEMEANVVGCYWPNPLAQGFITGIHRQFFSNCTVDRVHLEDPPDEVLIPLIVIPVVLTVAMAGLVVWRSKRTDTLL

T3: rat amylin 3(a) receptor (rat calcitonin(a) receptor + rat RAMP3) (rat, UniProt P32214 25-516; Q9JJ73 23-147)
T3 sequence (looked up) 1: T1 sequence (looked up)
T3 sequence (looked up) 2: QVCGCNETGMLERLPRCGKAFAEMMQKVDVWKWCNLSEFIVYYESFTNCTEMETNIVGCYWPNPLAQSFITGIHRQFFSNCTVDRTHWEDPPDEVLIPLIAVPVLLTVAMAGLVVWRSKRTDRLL

T4: human calcitonin (a) receptor (human, UniProt P30988 25-474)
T4 sequence (looked up): T2 sequence (looked up) 1

B1: N-alpha-[2-(2-{2-[2-(2-{2-[(S)-4-Carboxy-4-(19-carboxyheptadecanoylamino)butyrylamino]ethoxy}ethoxy)acetylamino]ethoxy}ethoxy)acetyl]-D-Arg-D-Arg-[Glu14,His17,A … (peptide)
peptide: {19‑carboxyheptadecanoyl-γGlu-AEEA-AEEA}-[dR][dR]KCNTATCATQRLAEFLHRSSNNFGPILPPTNVGSNTY-NH2
modifications: disulfide 4-9; reading uncertain; also: printed as N-alpha-[2-(2-{2-[2-(2-{2-[(S)-4-Carboxy-4-(19-carboxyheptadecanoylamino)butyrylamino]ethoxy}ethoxy)acetylamino]ethoxy}ethoxy)acetyl]-D-Arg-D-Arg-[Glu14,His17,Arg18]-pramlintide
B2: N-alpha-[(S)-4-Carboxy-4-(19-carboxynonadecanoylamino)butyryl]-[Glu14,His17]-pramlintide (peptide)
peptide: {C20 diacid-γGlu}-KCNTATCATQRLAEFLHHSSNNFGPILPPTNVGSNTY-NH2
modifications: disulfide 2-7
SMILES: CC[C@H](C)[C@H](NC(=O)[C@@H]1CCCN1C(=O)CNC(=O)[C@H](Cc1ccccc1)NC(=O)[C@H](CC(N)=O)NC(=O)[C@H](CC(N)=O)NC(=O)[C@H](CO)NC(=O)[C@H](CO)NC(=O)[C@H](Cc1c[nH]cn1)NC(=O)[C@H](Cc1c[nH]cn1)NC(=O)[C@H](CC(C)C)NC(=O)[C@H](Cc1ccccc1)NC(=O)[C@H](CCC(=O)O)NC(=O)[C@H](C)NC(=O)[C@H](CC(C)C)NC(=O)[C@H](CCCNC(=N)N)NC(=O)[C@H](CCC(N)=O)NC(=O)[C@@H](NC(=O)[C@H](C)NC(=O)[C@@H]1CSSC[C@H](NC(=O)[C@H](CCCCN)NC(=O)CC[C@H](NC(=O)CCCCCCCCCCCCCCCCCCC(=O)O)C(=O)O)C(=O)N[C@@H](CC(N)=O)C(=O)N[C@@H]([C@@H](C)O)C(=O)N[C@@H](C)C(=O)N[C@@H]([C@@H](C)O)C(=O)N1)[C@@H](C)O)C(=O)N[C@@H](CC(C)C)C(=O)N1CCC[C@H]1C(=O)N1CCC[C@H]1C(=O)N[C@H](C(=O)N[C@@H](CC(N)=O)C(=O)N[C@H](C(=O)NCC(=O)N[C@@H](CO)C(=O)N[C@@H](CC(N)=O)C(=O)N[C@H](C(=O)N[C@@H](Cc1ccc(O)cc1)C(N)=O)[C@@H](C)O)C(C)C)[C@@H](C)O
B3: N-alpha-[(S)-4-Carboxy-4-(19-carboxynonadecanoylamino)butyryl]-His-His-[His1,His3,Glu14,His17,His35]-pramlintide (peptide)
peptide: {C20 diacid-γGlu}-HHHCHTATCATQRLAEFLHHSSNNFGPILPPTNVGSHTY-NH2
modifications: disulfide 4-9
SMILES: CC[C@H](C)[C@H](NC(=O)[C@@H]1CCCN1C(=O)CNC(=O)[C@H](Cc1ccccc1)NC(=O)[C@H](CC(N)=O)NC(=O)[C@H](CC(N)=O)NC(=O)[C@H](CO)NC(=O)[C@H](CO)NC(=O)[C@H](Cc1c[nH]cn1)NC(=O)[C@H](Cc1c[nH]cn1)NC(=O)[C@H](CC(C)C)NC(=O)[C@H](Cc1ccccc1)NC(=O)[C@H](CCC(=O)O)NC(=O)[C@H](C)NC(=O)[C@H](CC(C)C)NC(=O)[C@H](CCCNC(=N)N)NC(=O)[C@H](CCC(N)=O)NC(=O)[C@@H](NC(=O)[C@H](C)NC(=O)[C@@H]1CSSC[C@H](NC(=O)[C@H](Cc2c[nH]cn2)NC(=O)[C@H](Cc2c[nH]cn2)NC(=O)[C@H](Cc2c[nH]cn2)NC(=O)CC[C@H](NC(=O)CCCCCCCCCCCCCCCCCCC(=O)O)C(=O)O)C(=O)N[C@@H](Cc2c[nH]cn2)C(=O)N[C@@H]([C@@H](C)O)C(=O)N[C@@H](C)C(=O)N[C@@H]([C@@H](C)O)C(=O)N1)[C@@H](C)O)C(=O)N[C@@H](CC(C)C)C(=O)N1CCC[C@H]1C(=O)N1CCC[C@H]1C(=O)N[C@H](C(=O)N[C@@H](CC(N)=O)C(=O)N[C@H](C(=O)NCC(=O)N[C@@H](CO)C(=O)N[C@@H](Cc1c[nH]cn1)C(=O)N[C@H](C(=O)N[C@@H](Cc1ccc(O)cc1)C(N)=O)[C@@H](C)O)C(C)C)[C@@H](C)O
B4: N-alpha-[(S)-4-Carboxy-4-(19-carboxynonadecanoylamino)butyryl]-Glu-[Glu14,His17]-pramlintide (peptide)
peptide: {C20 diacid-γGlu}-EKCNTATCATQRLAEFLHHSSNNFGPILPPTNVGSNTY-NH2
modifications: disulfide 3-8; not fully specified; printed as N-alpha-[(S)-4-Carboxy-4-(19-carboxynonadecanoylamino)butyryl]-Glu-[Glu14,His17]-pramlintide
B5: N-alpha-[(S)-4-Carboxy-4-(19-carboxynonadecanoylamino)butyryl]-His-His-[His1,Glu14,His17,His35]-pramlintide (peptide)
peptide: {C20 diacid-γGlu}-HHHCNTATCATQRLAEFLHHSSNNFGPILPPTNVGSHTY-NH2
modifications: disulfide 4-9
SMILES: CC[C@H](C)[C@H](NC(=O)[C@@H]1CCCN1C(=O)CNC(=O)[C@H](Cc1ccccc1)NC(=O)[C@H](CC(N)=O)NC(=O)[C@H](CC(N)=O)NC(=O)[C@H](CO)NC(=O)[C@H](CO)NC(=O)[C@H](Cc1c[nH]cn1)NC(=O)[C@H](Cc1c[nH]cn1)NC(=O)[C@H](CC(C)C)NC(=O)[C@H](Cc1ccccc1)NC(=O)[C@H](CCC(=O)O)NC(=O)[C@H](C)NC(=O)[C@H](CC(C)C)NC(=O)[C@H](CCCNC(=N)N)NC(=O)[C@H](CCC(N)=O)NC(=O)[C@@H](NC(=O)[C@H](C)NC(=O)[C@@H]1CSSC[C@H](NC(=O)[C@H](Cc2c[nH]cn2)NC(=O)[C@H](Cc2c[nH]cn2)NC(=O)[C@H](Cc2c[nH]cn2)NC(=O)CC[C@H](NC(=O)CCCCCCCCCCCCCCCCCCC(=O)O)C(=O)O)C(=O)N[C@@H](CC(N)=O)C(=O)N[C@@H]([C@@H](C)O)C(=O)N[C@@H](C)C(=O)N[C@@H]([C@@H](C)O)C(=O)N1)[C@@H](C)O)C(=O)N[C@@H](CC(C)C)C(=O)N1CCC[C@H]1C(=O)N1CCC[C@H]1C(=O)N[C@H](C(=O)N[C@@H](CC(N)=O)C(=O)N[C@H](C(=O)NCC(=O)N[C@@H](CO)C(=O)N[C@@H](Cc1c[nH]cn1)C(=O)N[C@H](C(=O)N[C@@H](Cc1ccc(O)cc1)C(N)=O)[C@@H](C)O)C(C)C)[C@@H](C)O
B6: N-alpha-[(S)-4-Carboxy-4-(19-carboxynonadecanoylamino)butyryl]-Glu-[Arg1,Glu14,His17]-pramlintide (peptide)
peptide: {C20 diacid-γGlu}-ERCNTATCATQRLAEFLHHSSNNFGPILPPTNVGSNTY-NH2
modifications: disulfide 3-8
SMILES: CC[C@H](C)[C@H](NC(=O)[C@@H]1CCCN1C(=O)CNC(=O)[C@H](Cc1ccccc1)NC(=O)[C@H](CC(N)=O)NC(=O)[C@H](CC(N)=O)NC(=O)[C@H](CO)NC(=O)[C@H](CO)NC(=O)[C@H](Cc1c[nH]cn1)NC(=O)[C@H](Cc1c[nH]cn1)NC(=O)[C@H](CC(C)C)NC(=O)[C@H](Cc1ccccc1)NC(=O)[C@H](CCC(=O)O)NC(=O)[C@H](C)NC(=O)[C@H](CC(C)C)NC(=O)[C@H](CCCNC(=N)N)NC(=O)[C@H](CCC(N)=O)NC(=O)[C@@H](NC(=O)[C@H](C)NC(=O)[C@@H]1CSSC[C@H](NC(=O)[C@H](CCCNC(=N)N)NC(=O)[C@H](CCC(=O)O)NC(=O)CC[C@H](NC(=O)CCCCCCCCCCCCCCCCCCC(=O)O)C(=O)O)C(=O)N[C@@H](CC(N)=O)C(=O)N[C@@H]([C@@H](C)O)C(=O)N[C@@H](C)C(=O)N[C@@H]([C@@H](C)O)C(=O)N1)[C@@H](C)O)C(=O)N[C@@H](CC(C)C)C(=O)N1CCC[C@H]1C(=O)N1CCC[C@H]1C(=O)N[C@H](C(=O)N[C@@H](CC(N)=O)C(=O)N[C@H](C(=O)NCC(=O)N[C@@H](CO)C(=O)N[C@@H](CC(N)=O)C(=O)N[C@H](C(=O)N[C@@H](Cc1ccc(O)cc1)C(N)=O)[C@@H](C)O)C(C)C)[C@@H](C)O

Target: T1, rat calcitonin (a) receptor
Test: cell-based or functional assay

Row | CTa receptor rat EC50 [pM] | Binder
1 | 1890 | B1
2 | 539 | B2
3 | 4870 | B3
4 | 1390 | B4
5 | 287 | KCNTATCATQRLAEFLRHSSNNFGPILPPTNVGSNTP (N-alpha acylated: C20diacid-gGlu; disulfide Cys2-Cys7; C-terminal amide) [N-alpha-[(S)-4-Carboxy-4-(19-carboxynonadecanoylamino)butyryl]-[Glu14,Arg17,Pro37]-pramlintide]
6 | 1310 | B5

Target: T2, human amylin 3(a) receptor (human …)
Test: cell-based or functional assay

Row | Amylin receptor human EC50 [pM] | Binder
7 | 83.2 | B1
8 | 121 | B2
9 | 603 | B3
10 | 130 | B4
11 | 119 | B6
12 | 164 | B5

Target: T3, rat amylin 3(a) receptor (rat …)
Test: cell-based or functional assay

Row | Amylin receptor rat EC50 [pM] | Binder
13 | 132 | B1
14 | 188 | B2
15 | 401 | B3
16 | 476 | B4
17 | 348 | KCNTATCATQRLAEFLRHSSNNFGPILPPTNVGSNTP (N-alpha acylated: C20diacid-gGlu; disulfide Cys2-Cys7; C-terminal amide) [N-alpha-[(S)-4-Carboxy-4-(19-carboxynonadecanoylamino)butyryl]-[Glu14,Arg17,Pro37]-pramlintide]
18 | 200 | B5

Target: T4, human calcitonin (a) receptor
Test: cell-based or functional assay

Row | CTa receptor human EC50 [pM] | Binder
19 | 642 | B1
20 | 107 | B2
21 | 543 | B3
22 | 214 | B4
23 | 184 | B6
24 | 156 | B5
